# In patent US20240287172A1 (SCIRHOM, published 2024):
# T1: hiR2-FL-M534S-T7 (human, UniProt Q6PJF5 1-856)
# T1 sequence: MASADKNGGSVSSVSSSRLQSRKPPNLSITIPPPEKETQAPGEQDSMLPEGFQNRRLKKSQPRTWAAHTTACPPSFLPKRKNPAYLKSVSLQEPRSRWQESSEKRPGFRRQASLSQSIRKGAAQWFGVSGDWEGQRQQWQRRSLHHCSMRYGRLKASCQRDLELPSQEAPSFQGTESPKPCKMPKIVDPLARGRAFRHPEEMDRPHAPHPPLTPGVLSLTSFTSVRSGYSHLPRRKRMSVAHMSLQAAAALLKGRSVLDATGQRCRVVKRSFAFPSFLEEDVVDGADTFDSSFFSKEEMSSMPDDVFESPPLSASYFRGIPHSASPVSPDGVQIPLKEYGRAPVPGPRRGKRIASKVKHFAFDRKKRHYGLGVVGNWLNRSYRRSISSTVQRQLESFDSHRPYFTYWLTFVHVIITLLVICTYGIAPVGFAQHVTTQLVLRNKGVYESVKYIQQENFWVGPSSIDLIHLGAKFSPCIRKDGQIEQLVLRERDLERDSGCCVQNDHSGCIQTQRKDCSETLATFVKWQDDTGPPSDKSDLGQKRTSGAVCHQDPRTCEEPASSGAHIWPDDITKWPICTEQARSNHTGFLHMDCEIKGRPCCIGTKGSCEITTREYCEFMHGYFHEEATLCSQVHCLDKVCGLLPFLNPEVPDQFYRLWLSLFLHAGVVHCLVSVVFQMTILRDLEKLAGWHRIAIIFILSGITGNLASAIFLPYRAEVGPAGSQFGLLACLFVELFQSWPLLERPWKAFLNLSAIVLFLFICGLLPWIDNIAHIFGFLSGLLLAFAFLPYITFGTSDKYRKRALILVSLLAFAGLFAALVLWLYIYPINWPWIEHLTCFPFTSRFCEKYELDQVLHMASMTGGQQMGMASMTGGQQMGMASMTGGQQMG
# T2: dog iRhom2 full length wild type, T7-tagged (dog, UniProt Q00M95 1-827)
# T2 construct: whole, on cells; on MEF-DKO cells; also called Dog-iR2-FL-WT-T7
# T2 sequence: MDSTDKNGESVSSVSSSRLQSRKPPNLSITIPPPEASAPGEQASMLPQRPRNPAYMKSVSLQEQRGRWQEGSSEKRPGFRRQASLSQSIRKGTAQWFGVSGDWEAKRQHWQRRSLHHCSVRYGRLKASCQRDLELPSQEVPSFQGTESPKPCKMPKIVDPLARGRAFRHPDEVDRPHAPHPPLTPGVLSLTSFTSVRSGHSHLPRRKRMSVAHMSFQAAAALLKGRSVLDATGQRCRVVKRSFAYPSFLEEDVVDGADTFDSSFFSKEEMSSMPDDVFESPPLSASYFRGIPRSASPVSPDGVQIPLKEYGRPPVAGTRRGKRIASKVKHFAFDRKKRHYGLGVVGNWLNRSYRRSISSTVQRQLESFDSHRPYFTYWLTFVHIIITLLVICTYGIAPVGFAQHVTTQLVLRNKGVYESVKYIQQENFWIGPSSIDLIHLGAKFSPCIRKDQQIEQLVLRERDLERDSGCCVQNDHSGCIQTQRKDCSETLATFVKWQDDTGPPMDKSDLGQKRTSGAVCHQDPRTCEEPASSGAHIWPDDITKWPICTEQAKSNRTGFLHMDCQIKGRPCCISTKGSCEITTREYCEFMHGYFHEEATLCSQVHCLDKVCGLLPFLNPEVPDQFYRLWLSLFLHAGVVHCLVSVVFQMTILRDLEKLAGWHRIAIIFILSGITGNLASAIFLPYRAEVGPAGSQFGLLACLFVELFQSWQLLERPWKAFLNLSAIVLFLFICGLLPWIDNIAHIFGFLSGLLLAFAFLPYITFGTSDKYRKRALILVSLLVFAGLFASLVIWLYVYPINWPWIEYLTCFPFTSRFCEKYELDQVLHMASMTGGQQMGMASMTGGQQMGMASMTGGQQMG
# Tests used:
# [1] = molecular target: T1, hiR2-FL-M534S-T7; test: FACS, MEF-DKO cells, 3 µg/ml
# [2] = molecular target: T2, dog iRhom2 full length wild type, …; test: FACS on MEF-DKO-iR2 Dog cells, 3 µg/ml
# Method: In brief, immortalized MEF-DKO-EV control cells, MEF-DKO-rhesus-iR2-FL-WT-T7 cells, MEF-DKO-cyno-iR2-FL-WT-T7 cells, MEF-DKO-dog-iR2-FL-WT-T7 cells and MEF-DKO-rabbit-iR2-FL-WT-T7 cells, as well as their respective iRhom1 counterparts, were harvested with 10 mM EDTA in PBS, washed and resuspended in FACS buffer (PBS, 3% FBS, 0.05% sodium azide), and seeded in Nunc U-bottom 96-well plates (Thermo Fisher Scientific, USA) at approximately 3×10⁵ cells per well. To pellet cells and remove supernatants, the plates were centrifuged at 1,500 rpm and 4° C. for 3 minutes. For primary staining, cells were resuspended in 100 μl per well of either FACS buffer alone (controls), mouse monoclonal anti-T7 IgG (Merck Millipore, USA) at 3 μg/ml FACS buffer or the antibodies of the invention also at 3 μg/ml FACS buffer and incubated on ice for 1 hour.
# Afterwards, plates were centrifuged at 1,500 rpm and 4° C. for 3 minutes and washed twice with 200 μl per well of FACS buffer. For secondary staining, cells were spun down and resuspended in 100 μl per well of PE-conjugated goat anti-mouse IgG F(ab′)2 detection fragment (Dianova, Germany) diluted 1:100 in FACS buffer. Protected from light, the cell suspensions were incubated on ice for 1 hour. […] Finally, cells were resuspended in 150 μl per well of FACS buffer and analyzed using a BD Accuri™ C6 Plus flow cytometer (Becton Dickinson, Germany).
Binder,loss of binding vs wild type [1],binding result [2]
"antibody 5 (antibody, V domains shown, mouse IgG, kappa light chain; also called clone #5; purified antibody 5) VH: QVTLKESGPGILQPSQTLSLTCSFSGFSLSTFGMGVGWIRQPSGKGLEWLAHIWWDDEKYYNSALKSRLTISKATSKNQAFLKIANVDTADTATYYCARISNYGSNYWYFNVWGTGTTVTVSS VL: QVVLTQSPALMSASPGEKVTMTCSAGSSVSCMYWYQQKPGSSPRVLIYDTSNLASGVPARFTGSGSGTSYSLTISRMEAEDAASYYCQQWNSYPLTFGAGTKLELK",≥ 30%,
"antibody 16 (antibody, V domains shown, mouse IgG, kappa light chain; also called clone #16; purified antibody 16) VH: QVTLKESGPGILQPSQTLSLTCSFSGFSLSTFALGVGWIRQPSGRGLEWLAHIWWDDDKYYNPALKSRLTISKDTSKNHVFLKIANVDTADTATYYCARITTYYYGMDYWGQGTSVTVSS VL: DIVLSQSPATLSVTPGDSVSLFCRASQSIGNHLHWYQQESHASPRLLIKYASQSISGIPSRFSGSGSGTDFTLSINSVETEDFGMYFCQQSYNWPLTFGAGTKLELK",,binds
